Test results taken from patent US20260109758A1 (BIOSION, published 2026).
Where two headings read alike, the source gives them in different places.

Columns and labels:
[1] = target: T1, human IL4Rα expressed on 293F-IL4Rα cell surface (human, UniProt P24394 26-825); assay: flow cytometry on 293F-IL4Rα cells, PE anti-human IgG Fc
T1 construct: whole, on cells; also called human IL4Rα-expressing cells; cell surface IL4R
Method: (§1) Cells were washed twice with FACS buffer, and added with 100 μL/well R-Phycoerythrin AffiniPure Goat Anti-Human IgG, Fey fragment specific (1:1000 dilution in FACS buffer, Jackson Immunoresearch, Cat #109-115-098). Following an incubation of 40 minutes at 4° C. in dark, cells were washed three times and resuspended in FACS buffer. Fluorescence was measured using a Becton Dickinson FACS Canto II-HTS equipment. Data was analyzed using Graphpad Prism and EC₅₀ values were reported.

[2] = target: T2, recombinant human TSLP-his (human, UniProt Q969D9 29-159, biotin-labeled in the ELISAs); assay: SPR Biacore; TSLP-his amine-coupled to CM5 chip, antibody as analyte; 1:1 Langmuir fit
T2 construct: In-house made; not shown: His tag at the C-terminus
Method: Un-reacted moieties on the biosensor surface were blocked with ethanolamine. Then, serially diluted purified bispecific antibodies and the controls (2-fold serial dilution in HBS-EP⁺ buffer starting at 100 nM) were respectively flowed onto the chip at a flow rate of 30 μL/min. The antigen-antibody association kinetics was followed for 4 minutes and the dissociation kinetics was followed for 13 minutes.

[3] = target: T1, human IL4Rα expressed on 293F-IL4Rα …; assay: cell-based blocking FACS on 293F-IL4Rα cells; blocked ligand biotin human IL4
Method: (§2) Then, 1×10⁵ cells per well were incubated in 96 well-plates in 100 μL of serially diluted bispecific antibodies, the positive controls or negative control (starting at 100 nM with a 5-fold serial dilution) in FACS buffer for 40 minutes on ice. […] The plates were washed twice with FACS buffer, and then added and incubated for 40 minutes at 4° C. in dark with 100 μL/well R-Phycoerythrin Streptavidin (1:500 dilution in FACS buffer, Jackson Immunoresearch, Cat #016-110-084). Cells were washed twice and resuspended in FACS buffer. Fluorescence was measured using a Becton Dickinson FACS Canto II-HTS equipment. Data was analyzed using Graphpad Prism and IC₅₀ values were reported.

[4] = target: T3, recombinant human IL4Rα-his (human, UniProt P24394 26-231, limits assumed, biotin-labeled in the capture ELISA); assay: capture ELISA: antibody captured on anti-human IgG Fc F(ab')2, biotin human IL4Rα-his, SA-HRP
T3 construct: In-house made; not shown: His tag at the C-terminus
Method: (§3) Briefly, 96-well plates were coated with 2 μg/mL AffiniPure F(ab′)₂ Fragment Goat Anti-Human IgG, Fey fragment specific (Jackson Immuno Research, Cat #109-006-008) in PBS, 100 μL/well, overnight at 4° C. Plates were washed once with wash buffer (PBS+0.05% w/v Tween-20, PBST) and then blocked with 200 μL/well blocking buffer (5% w/v non-fatty milk in PBST) for 2 hours at 37° C. […] After a final wash, plates were incubated with 100 μL/well ELISA substrate TMB (Innoreagents, Cat #TMB-S-002). The reaction was stopped in 10 minutes at 25° C. with 50 μL/well 1M H₂SO₄, and the absorbance was read on a microplate reader using dual wavelength mode with 450 nm for TMB and 630 nm as the reference wavelength. Data was analyzed using Graphpad Prism and EC₅₀ values were reported.

[5] = target: T3, recombinant human IL4Rα-his; assay: SPR Biacore T200; antibody captured on anti-human IgG CM5 chip, IL4Rα-his as analyte; 1:1 Langmuir fit
Method: The goat anti-human IgG (GE healthcare, Cat #BR100839, Human Antibody Capture Kit) was covalently linked to a CM5 chip (carboxy methyl dextran coated chip) via primary amines, using a standard amine coupling kit provided by Biacore (GE healthcare, Pittsburgh, PA, USA). Un-reacted moieties on the biosensor surface were blocked with ethanolamine. Then, purified bispecific antibodies of the disclosure at the concentration of 66.67 nM and the controls at 10 μg/mL, were flowed onto the chip at a flow rate of 10 μL/min. Then, serially diluted recombinant human IL4Rα-his (in house made, IL4Rα of SEQ ID NO: 33 with His tag at C-terminus) in HBS EP buffer (provided by Biacore) was flowed onto the chip at a flow rate of 30 μL/min. The association and dissociation curves were fit to a 1:1 Langmuir binding model using BIAcore evaluation software.

[6] = target: T3, recombinant human IL4Rα-his; assay: competitive ELISA: coated human IL4Rα-his, antibody titrated; blocked ligand biotin human IL4
Method: Briefly, 100 μL human IL4Rα-his proteins (prepared in-house, IL4Rα of SEQ ID NO: 33 with C-terminal His tag) were coated on 96-well micro plates at 2 μg/mL in PBS overnight at 4° C. The next day, plates were washed with wash buffer (PBS+0.05% w/v Tween-20, PBST), and blocked with 5% w/v non-fatty milk in PBST for 2 hours at 37° C. Plates were then washed again using wash buffer. Serially diluted bispecific antibodies or the controls (starting at 100 nM with a 5-fold serial dilution) in 2.5% w/v non-fatty milk in PBST, 100 μL per well, were added to the IL4Rα bound plates, and incubated at 37° C. for 40 minutes. […] Plates were washed again using wash buffer. Thereafter, the plates were added with 100 μL/well of streptavidin conjugated HRP (1:10000 dilution in PBST buffer, Jackson Immunoresearch, Cat #016-030-084) and incubated for 40 minutes at 37° C. Plates were washed again using wash buffer. Finally, TMB was added and the reaction was stopped using 1M H₂SO₄, and the absorbance was read at 450 nm. Data was analyzed using Graphpad Prism and IC₅₀ values were reported.

[7] = target: T3, recombinant human IL4Rα-his; assay: dual-binding ELISA: coated human IL4Rα-his, antibody titrated, detection with biotin human TSLP-his and SA-HRP; signal needs both antigens bound
Method: For the dual-binding ELISA, 96-well ELISA plates were firstly coated with 100 μL 1 μg/mL human IL4Rα-his protein (IL4Rα of SEQ ID NO: 33 with His tag at C terminus, prepared in-house) in PBS overnight at 4° C. ELISA plates were washed 4 times with wash buffer (PBS+0.05% Tween-20, PBST) and then blocked with 200 μL/well blocking buffer (5% w/v non-fatty milk in PBST) for 2 hours at 37° C. […] ELISA plates were washed again and incubated with SA-HRP (100 μl/well) for 40 minutes at 37° C. After the final wash, 100 μL/well TMB (Innoreagents) was added. The reaction was stopped 15 minutes later at room temperature with 50 μL/well 1M H₂SO₄, and the absorbance was read on a microplate reader using dual wavelength mode with 450 nm for TMB and 630 nm as the reference wavelength. The OD (450-630) values were plotted against antibody concentration. Data was analyzed using Graphpad Prism and EC₅₀ values were reported.

[8] = target: T4, biotin-labeled human TSLP-Fc (human, biotin-labeled); assay: cell-based blocking FACS: antibody pre-mixed with biotin human TSLP-Fc; blocked binding to cell-surface TSLPR/IL7Ra on HEK293T-TSLPR/IL7R/STAT5-Luc 5C5 cells
T4 construct: also called TSLP-Fc protein; TSLP-Fc-biotin
Method: (§4) The cells were prepared following the instruction of lipofectamine 3000 transfection reagent (Thermo Fisher), by transfecting HEK293T cells (ATCC® CRL-11268) with pCMV-T-P plasmids inserted with TSLPR coding sequence between EcoRI and Xba1 sites and pCMV3-SP plasmids inserted with IL7Ra coding sequence between HindIII and Xba1 sites as well as pGL4.52 [luc2P/STAT5RE/Hygro](Promega).
(§5) The cells were harvested from cell culture flasks, washed twice and re-suspended in phosphate buffered saline (PBS) containing 2% v/v Fetal Bovine Serum (FACS buffer). […] Cells were washed twice with FACS buffer, and then added and incubated with 100 μL/well R-Phycoerythrin Streptavidin (1:500 dilution in FACS buffer, Jackson Immunoresearch, Cat #016-110-084) for 40 minutes at 4° C. in dark. Cells were washed twice and re-suspended in FACS buffer. Fluorescence was measured using a Becton Dickinson FACS Canto II-HTS equipment. Data was analyzed using Graphpad Prism and IC₅₀ values were reported.

[9] = target: T1, human IL4Rα expressed on 293F-IL4Rα …; assay: flow cytometry on 293F-IL4Rα cells, PE anti-human IgG Fc; remark: listed apart in the source
Method: as §1

[10] = target: T1, human IL4Rα expressed on 293F-IL4Rα …; assay: cell-based blocking FACS on 293F-IL4Rα cells; blocked ligand biotin human IL4; remark: listed apart in the source
Method: as §2

[11] = target: T3, recombinant human IL4Rα-his; assay: capture ELISA: antibody captured on anti-human IgG Fc F(ab')2, biotin human IL4Rα-his, SA-HRP; remark: listed apart in the source
Method: as §3

[12] = target: T4, biotin-labeled human TSLP-Fc; assay: cell-based blocking FACS: antibody pre-mixed with biotin human TSLP-Fc; blocked binding to cell-surface TSLPR/IL7Ra on HEK293T-TSLPR/IL7R/STAT5-Luc 5C5 cells; remark: listed apart in the source
Method: as §4, §5

B1: BSI-502-006 (bispecific antibody, human IgG1, kappa)
heavy: QVQLVQSGAEVKKPGASVKVSCKASGYTFTTYWMHWVRQAPGQGLEWMGVIDPSDSDTTYNQKFKGRVTMTRDTSTSTVYMELSSLRSEDTAVYYCTRSLDGYYDYWGQGTLVTVSSASTKGPSVFPLAPSSKSTSGGTAALGCLVKDYFPEPVTVSWNSGALTSGVHTFPAVLQSSGLYSLSSVVTVPSSSLGTQTYICNVNHKPSNTKVDKKVEPKSCDKTHTCPPCPAPEAQGGPSVFLFPPKPKDTLYITREPEVTCVVVDVSHEDPEVKFNWYVDGVEVHNAKTKPREEQYNSTYRVVSVLTVLHQDWLNGKEYKCQVSNKALPAPIEKTISKAKGQPREPQVYTLPPSRDELTKNQVSLTCLVKGFYPSDIAVEWESNGQPENNYKTTPPVLDSDGSFFLYSKLTVDKSRWQQGNVFSCSVMHEALHNHYTQKSLSLSPGKGGGGSGGGGSDIQMTQSPSSLSASVGDRVTITCRTSENIYSYLAWYQQKPGKAPKFLVYNAKTLAEGVPSRFSGSGSGTDFTLTISSLQPEDFATYYCQHYYGPPTWTFGQGTKVEIKGGGGSGGGGSGGGGSGGGGSEVQLVESGGGLVQPGGSLRLSCAASGFTFSTYGMSWVRQAPGKGLVWVATINSNGGSTSYPDSVKGRFTISRDNAKNTLYLQMNSLRAEDTAVYYCARFFRFRNAMDYWGQGTLVTVSS
light: DIQMTQSPSSLSASVGDRVTITCRPTENIYSYLAWYQQKPGKAPKLLIYFARTLAEGVPSRFSGSGSGTDFTLTISSLQPEDFATYYCQHHYGTPWTFGGGTKVEIKRTVAAPSVFIFPPSDEQLKSGTASVVCLLNNFYPREAKVQWKVDNALQSGNSQESVTEQDSKDSTYSLSSTLTLSKADYEKHKVYACEVTHQGLSSPVTKSFNRGEC
notes: hu1C5F12E9-V8 IgG with an anti-IL4R scFv (VL-VH) at the C-terminus of the heavy chain; AQQ and YTE already stand in the entry
B1 was tested, and the EC50 [1] was 458 pM, the Kd [2] was under 14.1 pM and the koff [2] was under 1e-05 s⁻¹. For the same binder, the kon [2] was 710000 M⁻¹ s⁻¹, the IC50 [3] was 326 pM and the EC50 [4] was 182 pM. The Kd [5] was 4880 pM, the koff [5] was 0.000244 s⁻¹ and the kon [5] was 50000 M⁻¹ s⁻¹. It also gave an IC50 [6] of 380 pM, an EC50 [7] of 104 pM and an IC50 [8] of 1130 pM.

B2: huC2C1A1A1-V15(IgG1) (antibody)
heavy: EVQLVESGGGLVQPGGSLRLSCAASGFTFSTYGMSWVRQAPGKGLVWVATINSNGGSTSYPDSVKGRFTISRDNAKNTLYLQMNSLRAEDTAVYYCARFFRFRNAMDYWGQGTLVTVSSASTKGPSVFPLAPSSKSTSGGTAALGCLVKDYFPEPVTVSWNSGALTSGVHTFPAVLQSSGLYSLSSVVTVPSSSLGTQTYICNVNHKPSNTKVDKKVEPKSCDKTHTCPPCPAPEAQGGPSVFLFPPKPKDTLYITREPEVTCVVVDVSHEDPEVKFNWYVDGVEVHNAKTKPREEQYNSTYRVVSVLTVLHQDWLNGKEYKCQVSNKALPAPIEKTISKAKGQPREPQVYTLPPSRDELTKNQVSLTCLVKGFYPSDIAVEWESNGQPENNYKTTPPVLDSDGSFFLYSKLTVDKSRWQQGNVFSCSVMHEALHNHYTQKSLSLSPG
light: DIQMTQSPSSLSASVGDRVTITCRTSENIYSYLAWYQQKPGKAPKFLVYNAKTLAEGVPSRFSGSGSGTDFTLTISSLQPEDFATYYCQHYYGPPTWTFGQGTKVEIKRTVAAPSVFIFPPSDEQLKSGTASVVCLLNNFYPREAKVQWKVDNALQSGNSQESVTEQDSKDSTYSLSSTLTLSKADYEKHKVYACEVTHQGLSSPVTKSFNRGEC
notes: Monospecific control, full-length IgG1; also called huC2C1A1A-V15(IgG1); anti-IL4R huC2C1A1A1-V15
B2 gave an EC50 [9] of about 165 pM, an EC50 [1] of about 162 pM and an IC50 [10] of 172 pM. It also gave an IC50 [3] of 159 pM, an EC50 [11] of 20.1 pM and an EC50 [4] of 29.4 pM. The Kd [5] was 2070 pM, the koff [5] was 0.000348 s⁻¹ and the kon [5] was 168000 M⁻¹ s⁻¹.

B3: Tezepelumab (antibody, human IgG2, lambda, V domains shown)
VH: QMQLVESGGGVVQPGRSLRLSCAASGFTFRTYGMHWVRQAPGKGLEWVAVIWYDGSNKHYADSVKGRFTITRDNSKNTLNLQMNSLRAEDTAVYYCARAPQWELVHEAFDIWGQGTMVTVSS
VL: SYVLTQPPSVSVAPGQTARITCGGNNLGSKSVHWYQQKPGQAPVLVVYDDSDRPSWIPERFSGSNSGNTATLTISRGEAGDEADYYCQVWDSSSDHVVFGGGTKLTVLG
notes: Positive control, prepared in-house; also called an anti-TSLP antibody
Binder B3 has an IC50 [12] of 1230 pM.
